Laboratory results taken from patent publication US6566088B1, “Prolyl-4-hydroxylases” (Board of Regents, The University of Texas System, priority 2001, dated 2003).
Changes are numbered by the printed parent chain. Numbers in names are those of the source.

B1: HPH 2: human HPH 1 paralog, Genbank AF229245; splice-variant in which residues 76-177 are omitted was used (protein)
chain: ANDSGGPGGPSPSERDRQYCELCGKMENLLRCSRCRSSFYCCKEHQRQDWKKHKLVCQGSEGALGHGVGPHQHSGPAPPAAVPPPRAGAREPRKAAARRDNASGDAAKGKVKAKPPADPAAAASPCRAAAGGQGSAVAAEAEPGKEEPPARSSLFQEKANLYPPSNTPGDALSPGGGLRPNGQTKPLPALKLALEYIVPCMNKHGICVVDDFLGKETGQQIGDEVRALHDTGKFTDGQLVSQKSDSSKDIRGDKITWIEGKEPGCETIGLLMSSMDDLIRHCNGKLGSYKINGRTKAMVACYPGNGTGYVRHVDNPNGDGRCVTCIYYLNKDWDAKVSGGILRIFPEGKAQFADIEPKFDRLLFFWSDRRNPHEVQPAYATRYAITVWYFDADERARAKVKYLTGEKGVRVELNKPSDSVGKDVF
modifications: left off: small tags and cut ends
B2: HPH 1: human HIF prolyl hydroxylase 1, SEQ ID NO:1, Genbank XM_012332 (protein)
chain: MPLGHIMRLDLEKIALEYIVPCLHEVGFCYLDNFLGEVVGDCVLERVKQLHCTGALRDGQLAGPRAGVSKRHLRGDQITWIGGNEEGCEAISFLLSLIDRLVLYCGSRLGKYYVKERSKAMVACYPGNGTGYVRHVDNPNGDGRCITCIYYLNKNWDAKLHGGILRIFPEGKSFIADVEPIFDRLLFFWSDRRNPHEVQPSYATRYAMTVWYFDAEERAEAKKKFRNLTRKTESALTED
modifications: human
B3: H196A: HPH 1 with His196 changed to alanine (protein)
chain: B2 chain with H196A
modifications: left off: small tags and cut ends
B4: H135A: HPH 1 with His135 changed to alanine (protein)
chain: B2 chain with H135A
modifications: left off: small tags and cut ends
B5: D137A: HPH 1 with Asp137 changed to alanine (protein)
chain: B2 chain with D137A
modifications: left off: small tags and cut ends

Legend:
[1] = molecular target: human HIF-1a ODD peptide (Homo sapiens, UniProt Q16665, M561A/M568A); experiment: [35S]-pVHL pull-down prolyl hydroxylase assay with biotinylated HIF-1a ODD peptide; type: biochemical; conditions: for prolyl hydroxylase activity (pVHL association with the biotinylated peptide): enzyme in vitro transcribed/translated in rabbit reticulocyte lysate, ascorbate, 2-oxoglutarate, FeSO4 present
[2] = system: transfected cell cultures; experiment: Visual inspection of cell cultures transfected with HPH 1 expression vector
[3] = system: CMV-driven luciferase reporter; experiment: Constitutive CMV-driven luciferase reporter co-transfection; type: cell-based, human
[4] = system: HIF-1a activation of the HRE-driven reporter; experiment: Hypoxia-responsive (HRE) luciferase reporter co-transfection in 293 cells; type: cell-based, human
Description: To test whether these HPH enzymes represent part of the hypoxic response pathway in vivo we first co-transfected (21) human embryonic kidney 293 cells with a hypoxia-responsive luciferase reporter (22) and increasing amounts of a vector expressing human HIF-1a under the control of the constitutive CMV promoter. Forced overexpression of HIF-1a can overcome the degradation pathway, resulting in accumulation of the HIF transcription factor under normoxic conditions and subsequent induction of the HRE-containing HIF reporter gene (22). […] Mutation of His^135, Asp^137 or His^196 to alanine eliminated the interfering activity of HPH 1 in these transfection assays. […] Finally, the ability of HPH 1 to diminish induction of the HIF-responsive luciferase reporter was lost when cells were incubated in an atmosphere containing 0.5% O2.
21. Transfection experiments were performed as in (22) with DNA amounts indicated in the text. Western blot analysis using an antibody specific for the carboxy-terminal V5 tag was used to confirm expression of each polypeptide following transfection of 1 μg of each expression vector.

Molecule	prolyl hydroxylase activity (pVHL association with the biotinylated peptide) [1]	further results
B1	catalyze the hydroxylation	hydroxylation of the HIF-1a peptide substrate ([1]; enzyme expressed in bacterial cells and purified by affinity chromatography): able to hydroxylate
B2	able to enhance pVHL association	programmed cell death [2]: no overt evidence of programmed cell death; effect on CMV-driven luciferase reporter expression [3]: did not attenuate; effect on induction of the HIF-dependent luciferase reporter ([4]; 293 cells, normoxic, 30 ng or 100 ng HIF-1a expression vector, 3 ng CMV-driven vector): able to attenuate; ability to diminish induction of the HIF-responsive luciferase reporter ([4]; atmosphere containing 0.5% O2): lost
B3	eliminated the prolyl hydroxylase activity	–
B4	eliminated the prolyl hydroxylase activity	–
B5	eliminated the prolyl hydroxylase activity	–
